How the values were obtained:
[1] = substrate: O=C(O)CC[C@@](O)(CC(=O)O)C(=O)O; assay: Homoaconitase activity, coupled reaction with HIcDH, NADH at 340 nm; type: biochemical, Candida albicans; conditions: other: recombinant C. albicans HA; pH 8.5; 20.0 °C
Method: (§1) Recombinant C. albicans homoaconitase (HA) and homoisocitrate dehydrogenase (HIcDH) containing oligoHis N-terminal tags were constructed and purified to near homogeneity as described earlier.
Activity of homoaconitase (HA) was measured by a coupled reaction with HIcDH by monitoring the reduction of NAD^+ to NADH at 340 nm. Reaction mixtures containing 50 mM Tris-HCl (pH 8.5), 50 mM KCl, 5 mM MgCl2, 20 mM dithiothreitol, 1 mM NAD^+ and 30 μg/mL of His6-HIcDH in a total volume of 0.9 mL were degassed under argon for 10 min, after which 0.05 mL of His6-HAC solution was added to a final concentration of 10 μg/mL. The reaction was initiated with addition of 0.05 mL of 50 mM (R)-homocitrate. The formation of NADH was measured for 30 s at 20 °C to determine initial reaction velocity. The initial rates were determined using a linear portion of the reaction progress curve.
(§2) The effects of novel compounds on the HA and HIcDH activity was determined by measuring the enzyme activity in standard assay mixtures containing various concentration of an inhibitor (0–10 mM). Inhibitory potential was expressed as IC50 values, i.e., concentrations causing 50% inhibition of enzyme activity in relation to control. All determinations were performed in triplicate.

[2] = substrate: O=C(O)CC[C@H](C(=O)O)[C@@H](O)C(=O)O; assay: Homoisocitrate dehydrogenase activity, NADH absorption at 340 nm; type: biochemical; conditions: other: recombinant C. albicans HIcDH; pH 7.8; 20.0 °C
Method: as §1
Reaction catalyzed by homoisocitrate dehydrogenase (HIcDH) was monitored by measuring the NADH absorption at 340 nm. The standard assay mixture contained 10 mM KCl, 5.0 mM MgCl2, 5 mM NAD^+ and 0.1 mM (2R,3S)-homoisocitrate in 50 mM Hepes-NaOH (pH 7.8) buffer. The reaction mixture with all required components except for the enzyme was preincubated for 3 min and the reaction was started by an addition of the recombinant His6-HIcDH (50 μg). The formation of NADH was measured for 30 s at 20 °C to determine initial reaction velocity. The initial rates were determined using a linear portion of the reaction progress curve.
as §2

Protein | Km [1] | Km [2]
recombinant homoaconitase (HA) (Candida albicans SC5314) (protein, made in house) MMLRFRSFSTTTHLLRGQNLTEKIVQKYAVGLQPSSKKVYSGDYVTIKPAHCMSHDNSWPVATKFMNLGASKVKDNRQIVCTLDHDVQNKSEQNLTKYTNIEKFAKSQGIDFYPAGRGIGHQIMIEEGYAFPLNLTVASDSHSNTYGGIGALGTPIVRTDAASIWATGQTWWQIPPVAKVELIGQLPKGVTGKDIIVALCGIFNNDEVLNHAIEFVGDDAISKLPIDYRLTIANMTTEWGALSGLFPVDETLVEFYQNRLKKLNKPDHPRINNQTIDQLINNKLTSDNDAVYAKHLQIDLSSLSPYISGPNSVKISNSLYDLSQQNIAINKAYLVSCTNSRLSDIQAAADIIKGHKVNPNVEFYVAAASSLVQKDAEQSGAWQTILDAGAKPLPAGCGPCIGLGTGLLKDGEVGISATNRNFKGRMGSKDALAYLASPEVVAASAVLGKIGGPEELNGEPVKQAPRIIKSIETESNSANEAESTSEEASGSIDILPGFPQSIEGELILCNADNINTDGIYPGKYTYQDDITKEQMAKVCMENYDSQFYSKTKPGDIIISGYNFGTGSSREQAATCILARGMKLIVAGSFGNIFSRNSINNALLTLEIPDLINKLRQQYEGNDELTIRTGWFLKWDVTKAQVTVVDGDDNLILTQKVGELGTNLQDIIVKGGLEGWVKSELKTNQ | 1500 µM | –
recombinant homoisocitrate dehydrogenase (HIcDH) (Candida albicans SC5314) (protein) STSSTTLKSLKIGLIPGDGIGREVIPAGKAVLENLPAKHDLQFEFVNLDAGFELFKKTGTALPDETVDVLKKECDGALFGAVSSPTTKVAGYSSPIVALRKKLGLYANVRPVKSVEGIGRPVDMVIVRENTEDLYIKEERVYKKEDGTKVAEAIKRITETASTRIAKMAYEIALQREAVRKGTSGKQLHEKPSVTVTHKSNVLSQSDGLFRETCRAVYDANANEYGGIEYKEQIVDSMVYRMFREPEIFDVVVAPNLYGDILSDGAAALVGSLGVVPSANVGDNFAIGEPCHGSAPDIEGKGISNPVATIRSTALMLEFMGYPEAAATIYQAVDANLAEDKIKTPDLGGNSTTQEVIDDIIRRF | – | 74 µM
